From patent publication US20260083641

Tested on: collagen

Row | Substance | fluorescence intensity, in vitro collagenase activity assay | collagenase activity relative to COLG
1 | N-terminally truncated recombinant collagenase G (ColG) from Clostridium histolyticum, residues Tyr119-Lys1118, with N-terminal His-tag and TEV cleavage site | where all the reaction components were included (two most right bars) significantly higher fluorescence was detected | –
2 | commercial collagenase (C.COL) (Sigma-Aldrich) | where all the reaction components were included (two most right bars) significantly higher fluorescence was detected | the activity of C.COL was significantly higher, increase of about 30%-40%, than that of COLG
